In PMC5378476, “Mechanism of ribosome rescue by ArfA and RF2” (eLife, 2017):

Target: T1, release factor RF2 (E. coli K12, UniProt P07012 1-365)
T1 construct: Peptide chain release factor RF2, E. coli K12 strain; SPF motif at 205-207, GGQ motif at 250-252, switch loop aa 315-323; source: purified as described (Korostelev et al., 2008; Laurberg et al., 2008)
T1 sequence: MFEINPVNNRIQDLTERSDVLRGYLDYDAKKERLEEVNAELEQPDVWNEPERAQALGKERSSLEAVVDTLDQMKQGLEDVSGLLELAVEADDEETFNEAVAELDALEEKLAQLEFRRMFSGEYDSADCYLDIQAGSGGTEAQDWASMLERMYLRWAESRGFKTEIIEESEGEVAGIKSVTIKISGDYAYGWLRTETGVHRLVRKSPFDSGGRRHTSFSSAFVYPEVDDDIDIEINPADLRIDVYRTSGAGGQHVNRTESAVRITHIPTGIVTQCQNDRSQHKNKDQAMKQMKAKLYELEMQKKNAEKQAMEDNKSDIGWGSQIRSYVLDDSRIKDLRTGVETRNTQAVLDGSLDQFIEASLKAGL
Experiment: cryo-EM structure; 70S•mRNA•tRNAfMet•ArfA•RF2 complex reconstituted in vitro from 30S and 50S subunits, mRNA truncated after the P-site AUG; 20 mM Tris-HCl pH 7.0, 100 mM NH4Cl, 20 mM MgCl2, 0.5 mM EDTA, 6 mM βME; on grids ~0.45 µM 70S, 10 µM ArfA, 10 µM RF2; two classes (Structure I, compact RF2; Structure II, extended RF2) from one dataset
Conditions: both partners purified

B1: ArfA (alternative rescue factor A) (natural protein, E. coli, UniProt P36675 1-60, looked up)
chain: MSRYQHTKGQIKDNAIEALLHDPLFRQRVEKNKKGKGSYMRKGKHGNRGNWEASGKKVNH
notes: ArfA, E. coli, gene from the ASKA Clone(-) library; the forward primer starts at the first ATG of the gene after the His6 codons, the reverse primer ends at the codon of residue 60; The natural protein is longer than 60 residues; the construct is cut short at the C-terminus; No density for the His6 tag in the maps; source: E. coli BLR/DE3, pET24b+, purified (Ni-NTA, ion exchange, size exclusion); …
Question: Does B1 bind?
Answer: binds
